In the supplement of paper PMC9170038:

Test system: MS2 coat protein
Assay: apparent KD of MS2 coat protein; designed switch direction (-1 OFF switch, 1 ON switch): -1; higher = weaker reporter binding
In short: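 The apparent KD reported per design is the median over clusters of curve fits to normalised cluster fluorescence. The RNA switches were transcribed on Illumina chips by stalled E. coli RNA polymerase. SNAP-549-labelled MS2 coat protein was titrated from 0.7 or 1.5 nM, doubling up to 3 µM, in Tris-HCl pH 7.5 buffer containing KCl, MgCl2, BSA, DTT, tRNA and Tween-20, with no input, 200 uM small-molecule ligand, or an oligonucleotide input.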

[1] = Eterna round: R95, input ligand: FMN 200 uM
[2] = Eterna round: R95, input ligand: microRNA oligo, concentration not stated
[3] = Eterna round: R95, input ligand: none

Sequence	apparent KD of MS2 coat protein [1] [nM]	apparent KD of MS2 coat protein [2] [nM]	apparent KD of MS2 coat protein [3] [nM]	apparent KD of MS2 coat protein (input ligand: FMN 200 uM) [nM]	apparent KD of MS2 coat protein (input ligand: none) [nM]
GAGUGACAUGAGGAUCACCCAUGUGAGGAUAUCGGACGGACCAAAUUAACAAUAAUUGCGAGAAGGCGCAUCGG [Exclusion 1 V15] (puzzle: Exclusion 1)	76	51.6	54.4		
GAGUGACAUGAGGAUCACCCAUGUGAGGAUAUCGGACGGACCAAAUUAACAAUUUUUGCGAGAAGGCACAUCGG [Exclusion 1 V18] (puzzle: Exclusion 1)		51.9			
GAGUGGCAAGGAUAUACAGUGGAGAGGAUGGCAAGAGGUGGACAUGAGGAUCACCCAUGUAGAAGGUGCAGAGA [JR_Exclu2_Sub024] (puzzle: Exclusion 2)		150			
GAUAAGGUAGGAUAUACGAAGAAAGAGGGUAGUAAUAAUACACAUGAGGAUCACCCAUGUAGAAGGACCAAGAG [Mat - Exclusion 2 - Mod of my Tesla design - D44] (puzzle: Exclusion 2)	38.7	23	22.1		
GAUAAGGUAGGAUAUACGAAGAAAGAGGGUAGUAAUAAUACACAUGAGGAUCACCCAUGUAGAAGGACCAAUAG [Mat - Exclusion 2 - Mod of my Tesla design - D43] (puzzle: Exclusion 2)	39.1	26	26.4		
GAUACACAUGAGGAUCACCCAUGUGAGGAUAUGCGUACGUUGUCCGUAGGCGACGUGCGCAGAAGGCGCAAAGG [Mat - Mod of JL D97] (puzzle: Exclusion 1)	85.1	41.3	86		
GAUCAACAUGAGGAUCACCCAUGUGAGGAUAUGAUACUAUGUACUUCGGUACAUAGUAUCAGAAGGCAUAUGAA [Ex1-3: 36] (puzzle: Exclusion 1)		52			
GAUCAACAUGAGGAUCACCCAUGUGAGGAUAUGAUACUAUGUACUUCGGUACAUAGUAUCAGAAGGCAUGUGGA [Ex1-3: 76] (puzzle: Exclusion 1)		162			
GAUCACUGAGGAUAUACACAGAUACAAAGUAUCUGAUAGUGACAUGAGGAUCACCCAUGUAGAAGGCAGAGGUC [Omei Ex2 B8] (Eterna round: R97, puzzle: Exclusion 2)				433	72.2
GAUCAUGCAGGAUAUACAUGGACCAUGAAAACAUGGAUUUCACAUGAGGAUCACCCAUGUAGAAGGGCAUGAUC [Omei Ex2 A9] (Eterna round: R97, puzzle: Exclusion 2)				82.1	777
GAUCAUGCAGGAUAUACAUGGACCAUGAAAACAUGGUUUUCACAUGAGGAUCACCCAUGUAGAAGGGCAUGAUC [Omei Ex2 A8] (Eterna round: R97, puzzle: Exclusion 2)				275	1400
GAUCCACAUGAGGAUCACCCAUGUCAGGAUAUGAUACUAUGUACUUCGGUACAUAGUAUCAGAAGGGACAGAUC [Ex1-3: 2] (puzzle: Exclusion 1)		162			
GAUCCACAUGAGGAUCACCCAUGUUAGGAUAUGACAACGACUCGCACUACGUUGUUGCUCAGAAGGAGCACCCA [Eternabot (Original) Solution 10] (Eterna round: R97, puzzle: Exclusion 1)				19.1	18.3
GAUCCUUAAGUCAGGAUAUCAAGCAAACUCAAAAUUGAGAAGGGACAUGAGGAUCACCCAUGUCACCGAAAUAA [Reteisus] (puzzle: Brourd's mod of Exclusion 4)	10.1	8.98	10.6		
